Laboratory results as given in the supplement of paper PMC10065799, “High-throughput profiling of sequence recognition by tyrosine kinases and SH2 domains using bacterial peptide display” (eLife, 2023).

Target: Hck (UniProt P08631)
Test: phosphorylation enrichment, bacterial display (enrichment ratio); higher = better substrate or ligand; peptides without Tyr show the background
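Further: 11-residue human phosphosite peptides and single-mutation variants displayed on the E. coli surface, counted by deep sequencing, each peptide's frequency after selection divided by its frequency in the unselected input library; frequency after pTyr selection over input frequency; kinase dosed for 20-30% of maximal phosphorylation in three min.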

Chain of Hck (P08631 whole entry, looked up): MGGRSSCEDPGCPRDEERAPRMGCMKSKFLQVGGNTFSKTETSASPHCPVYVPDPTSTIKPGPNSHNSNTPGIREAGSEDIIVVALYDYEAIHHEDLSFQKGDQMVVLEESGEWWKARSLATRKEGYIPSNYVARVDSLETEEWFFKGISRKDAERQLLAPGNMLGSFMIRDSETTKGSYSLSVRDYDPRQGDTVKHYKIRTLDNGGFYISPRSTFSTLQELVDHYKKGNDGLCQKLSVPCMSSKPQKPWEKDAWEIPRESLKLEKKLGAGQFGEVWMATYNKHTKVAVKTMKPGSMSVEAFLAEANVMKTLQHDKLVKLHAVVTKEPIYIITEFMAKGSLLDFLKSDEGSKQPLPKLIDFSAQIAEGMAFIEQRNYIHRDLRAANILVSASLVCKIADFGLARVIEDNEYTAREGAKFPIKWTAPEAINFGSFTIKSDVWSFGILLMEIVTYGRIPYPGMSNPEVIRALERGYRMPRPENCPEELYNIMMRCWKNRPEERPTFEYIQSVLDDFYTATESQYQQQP

Point of comparison: MEYAKYGSLRG [RET_Y809_V804M], phosphorylation enrichment 1.29. Against it:
- TFRPPYYHRDC [HGD_Y333_N337D] — lower, 0.822
- HCFNSYTFPRL [PAK7_Y316_S312C_YF] — lower, 0.564
- AESPEYVHMYT [FAM111A_Y511] — lower, 0.469
- VVQGIYGFHHH [UFSP2_Y285_Y290H_YF] — higher, 10.8
- QKLPLYILENN [VPS13B_Y2774_S2773L] — lower, 0.709
- AWVARYIFKRL [LPCAT3_Y348] — lower, 0.48
- FLAVGYHQPHI [IDS_Y225_K227Q] — lower, 0.405
- IHETTYKSIMK [ACTA1_Y281_N282K] — lower, 0.359
- ATRKAYGQALA [TKT_Y321] — lower, 0.412
- KVGPGYLGSRG [RET_Y826_G830R] — lower, 0.327
- ELELLYPDRNS [NYX_Y284_L285P] — lower, 0.534
- PLDGESFTLQI [TP53_Y327_Y327S] — lower, 0.619
- YYSSEYHYVGG [CTSC_Y345] — higher, 6.11
- CSRHFYQLTKL [AR_Y858_R856H] — lower, 0.464
- IDDNQYAYLKA [HNF4A_Y286_E285Q] — higher, 2.12
- NTQRPYYKGGG [TYROBP_Y111] — lower, 0.431
- QFNPEYVQQAS [LRRC7_Y1058_H1054Y_YF] — lower, 0.792
- DFDNLYFWDQD [ERBB2_Y1221_A1216D_YF] — higher, 5.15
- VAMDDYLKNVV [LRRK2_Y707_M712V] — lower, 0.477
- MYDKEYYSVHN [MET_Y1234] — lower, 0.903
- MKVPVYETPAG [PGM5_Y358] — higher, 7.86
- AHPIIYEIIEA [PYKtide_E_2014] — higher, 9.98
- RKETFYTLSCR [GUCY2C_Y681] — lower, 1.03
- LQRCKYSHMEP [TEX45_Y434] — lower, 0.672
- NDQANYLLNTD [ADA_Y290_S291L] — lower, 0.469
- EGDGVYTLNNK [HP_Y125_E130K] — higher, 3.23
- FSCLPYGRLAF [SLC52A2_Y305_YF] — lower, 0.936
- PVDVAYRRGFF [PLEC_Y2967_YF] — lower, 0.595
- QTLTDYDTRFF [CSNK2A3_Y131_I133T_YF] — lower, 1.06
- CTTIHYNFTCN [TP53_Y234_M237T_YF] — lower, 0.414
- RLRKFYLGKFL [KLB_Y906_YF] — lower, 0.654
- FISVGYVDDTQ [HLA-B_Y51] — lower, 0.444

Target: Jak2 (UniProt O60674)
Sequence (O60674 whole entry, looked up): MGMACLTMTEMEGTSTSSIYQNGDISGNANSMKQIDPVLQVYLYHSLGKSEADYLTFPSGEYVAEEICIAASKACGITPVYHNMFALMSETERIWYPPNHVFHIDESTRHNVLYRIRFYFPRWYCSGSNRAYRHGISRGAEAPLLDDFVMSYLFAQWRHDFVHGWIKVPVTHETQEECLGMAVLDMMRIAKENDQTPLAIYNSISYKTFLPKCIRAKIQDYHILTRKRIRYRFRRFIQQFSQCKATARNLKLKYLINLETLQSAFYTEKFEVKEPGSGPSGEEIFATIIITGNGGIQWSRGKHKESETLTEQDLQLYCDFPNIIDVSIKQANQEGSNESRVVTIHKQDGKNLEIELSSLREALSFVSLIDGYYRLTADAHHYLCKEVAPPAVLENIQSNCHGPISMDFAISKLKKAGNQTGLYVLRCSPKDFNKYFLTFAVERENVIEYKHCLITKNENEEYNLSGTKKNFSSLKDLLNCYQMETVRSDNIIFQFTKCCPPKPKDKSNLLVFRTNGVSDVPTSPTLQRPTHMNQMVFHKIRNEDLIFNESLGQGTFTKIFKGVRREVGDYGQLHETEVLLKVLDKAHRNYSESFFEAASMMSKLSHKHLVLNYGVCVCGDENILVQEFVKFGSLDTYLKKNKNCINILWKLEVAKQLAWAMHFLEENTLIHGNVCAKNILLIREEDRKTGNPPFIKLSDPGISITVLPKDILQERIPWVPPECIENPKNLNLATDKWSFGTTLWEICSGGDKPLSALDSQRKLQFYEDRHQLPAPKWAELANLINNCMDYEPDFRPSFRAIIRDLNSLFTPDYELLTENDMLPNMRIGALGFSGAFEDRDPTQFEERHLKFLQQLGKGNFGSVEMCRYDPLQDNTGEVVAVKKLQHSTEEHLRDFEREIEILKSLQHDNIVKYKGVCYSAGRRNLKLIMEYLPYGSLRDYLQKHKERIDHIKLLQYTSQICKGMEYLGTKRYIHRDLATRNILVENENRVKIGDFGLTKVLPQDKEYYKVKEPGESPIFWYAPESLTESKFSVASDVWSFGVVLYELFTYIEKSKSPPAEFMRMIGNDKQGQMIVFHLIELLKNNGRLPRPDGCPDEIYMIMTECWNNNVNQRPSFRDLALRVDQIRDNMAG
Test: as above

Point of comparison: RKETFYTLSCR [GUCY2C_Y681], phosphorylation enrichment 1.03. Against it:
- TFRPPYYHRDC [HGD_Y333_N337D] — lower, 0.82
- HCFNSYTFPRL [PAK7_Y316_S312C_YF] — higher, 1.31
- AESPEYVHMYT [FAM111A_Y511] — lower, 0.962
- VVQGIYGFHHH [UFSP2_Y285_Y290H_YF] — lower, 0.538
- QKLPLYILENN [VPS13B_Y2774_S2773L] — higher, 1.06
- AWVARYIFKRL [LPCAT3_Y348] — lower, 1
- FLAVGYHQPHI [IDS_Y225_K227Q] — lower, 0.447
- IHETTYKSIMK [ACTA1_Y281_N282K] — lower, 0.692
- ATRKAYGQALA [TKT_Y321] — lower, 0.481
- KVGPGYLGSRG [RET_Y826_G830R] — lower, 0.439
- ELELLYPDRNS [NYX_Y284_L285P] — the same, 1.03
- MEYAKYGSLRG [RET_Y809_V804M] — lower, 0.536
- PLDGESFTLQI [TP53_Y327_Y327S] — higher, 1.26
- YYSSEYHYVGG [CTSC_Y345] — higher, 7.76
- CSRHFYQLTKL [AR_Y858_R856H] — lower, 0.969
- IDDNQYAYLKA [HNF4A_Y286_E285Q] — lower, 0.753
- NTQRPYYKGGG [TYROBP_Y111] — lower, 0.601
- QFNPEYVQQAS [LRRC7_Y1058_H1054Y_YF] — higher, 1.3
- DFDNLYFWDQD [ERBB2_Y1221_A1216D_YF] — higher, 1.25
- VAMDDYLKNVV [LRRK2_Y707_M712V] — lower, 0.708
- MYDKEYYSVHN [MET_Y1234] — higher, 2.53
- MKVPVYETPAG [PGM5_Y358] — lower, 0.903
- AHPIIYEIIEA [PYKtide_E_2014] — higher, 1.16
- LQRCKYSHMEP [TEX45_Y434] — higher, 1.5
- NDQANYLLNTD [ADA_Y290_S291L] — lower, 0.934
- EGDGVYTLNNK [HP_Y125_E130K] — lower, 0.749
- FSCLPYGRLAF [SLC52A2_Y305_YF] — the same, 1.03
- PVDVAYRRGFF [PLEC_Y2967_YF] — lower, 0.728
- QTLTDYDTRFF [CSNK2A3_Y131_I133T_YF] — lower, 0.832
- CTTIHYNFTCN [TP53_Y234_M237T_YF] — lower, 0.704
- RLRKFYLGKFL [KLB_Y906_YF] — lower, 0.608
- FISVGYVDDTQ [HLA-B_Y51] — lower, 0.801

Target: MERTK (UniProt Q12866)
Sequence (Q12866 whole entry, looked up): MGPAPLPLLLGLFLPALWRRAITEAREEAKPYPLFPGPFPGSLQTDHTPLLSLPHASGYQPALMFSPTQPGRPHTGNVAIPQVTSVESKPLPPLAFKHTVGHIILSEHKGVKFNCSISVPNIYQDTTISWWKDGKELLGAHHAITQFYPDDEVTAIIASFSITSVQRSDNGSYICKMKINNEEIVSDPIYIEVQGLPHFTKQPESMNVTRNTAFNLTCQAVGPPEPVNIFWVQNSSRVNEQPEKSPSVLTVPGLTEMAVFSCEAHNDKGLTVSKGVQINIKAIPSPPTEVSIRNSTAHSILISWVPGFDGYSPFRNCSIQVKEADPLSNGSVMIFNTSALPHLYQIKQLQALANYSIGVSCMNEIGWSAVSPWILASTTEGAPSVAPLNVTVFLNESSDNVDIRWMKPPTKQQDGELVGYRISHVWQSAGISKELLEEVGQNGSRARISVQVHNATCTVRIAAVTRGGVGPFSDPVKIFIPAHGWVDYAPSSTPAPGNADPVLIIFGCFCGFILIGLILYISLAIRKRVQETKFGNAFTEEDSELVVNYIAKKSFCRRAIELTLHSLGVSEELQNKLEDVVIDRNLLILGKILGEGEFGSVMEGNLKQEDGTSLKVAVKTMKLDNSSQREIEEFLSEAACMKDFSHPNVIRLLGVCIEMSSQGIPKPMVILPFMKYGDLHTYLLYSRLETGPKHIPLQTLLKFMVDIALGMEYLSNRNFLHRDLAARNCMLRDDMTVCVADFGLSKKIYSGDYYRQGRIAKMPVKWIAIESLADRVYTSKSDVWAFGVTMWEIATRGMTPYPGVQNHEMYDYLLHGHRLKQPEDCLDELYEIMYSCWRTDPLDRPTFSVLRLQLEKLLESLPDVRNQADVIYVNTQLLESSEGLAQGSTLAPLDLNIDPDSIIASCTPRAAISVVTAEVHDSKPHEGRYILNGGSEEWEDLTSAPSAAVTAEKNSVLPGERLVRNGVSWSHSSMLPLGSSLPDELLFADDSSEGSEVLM
Test: as above

Point of comparison: HCFNSYTFPRL [PAK7_Y316_S312C_YF], phosphorylation enrichment 0.591. Against it:
- TFRPPYYHRDC [HGD_Y333_N337D] — lower, 0.499
- AESPEYVHMYT [FAM111A_Y511] — lower, 0.413
- VVQGIYGFHHH [UFSP2_Y285_Y290H_YF] — higher, 9.65
- QKLPLYILENN [VPS13B_Y2774_S2773L] — higher, 0.758
- AWVARYIFKRL [LPCAT3_Y348] — lower, 0.424
- FLAVGYHQPHI [IDS_Y225_K227Q] — lower, 0.298
- IHETTYKSIMK [ACTA1_Y281_N282K] — lower, 0.331
- ATRKAYGQALA [TKT_Y321] — lower, 0.432
- KVGPGYLGSRG [RET_Y826_G830R] — lower, 0.457
- ELELLYPDRNS [NYX_Y284_L285P] — lower, 0.433
- MEYAKYGSLRG [RET_Y809_V804M] — lower, 0.436
- PLDGESFTLQI [TP53_Y327_Y327S] — lower, 0.549
- YYSSEYHYVGG [CTSC_Y345] — higher, 12.1
- CSRHFYQLTKL [AR_Y858_R856H] — lower, 0.432
- IDDNQYAYLKA [HNF4A_Y286_E285Q] — higher, 0.876
- NTQRPYYKGGG [TYROBP_Y111] — lower, 0.415
- QFNPEYVQQAS [LRRC7_Y1058_H1054Y_YF] — higher, 0.638
- DFDNLYFWDQD [ERBB2_Y1221_A1216D_YF] — higher, 4.6
- VAMDDYLKNVV [LRRK2_Y707_M712V] — lower, 0.393
- MYDKEYYSVHN [MET_Y1234] — higher, 0.813
- MKVPVYETPAG [PGM5_Y358] — higher, 5.35
- AHPIIYEIIEA [PYKtide_E_2014] — higher, 11.6
- RKETFYTLSCR [GUCY2C_Y681] — higher, 6.83
- LQRCKYSHMEP [TEX45_Y434] — higher, 0.614
- NDQANYLLNTD [ADA_Y290_S291L] — lower, 0.395
- EGDGVYTLNNK [HP_Y125_E130K] — lower, 0.354
- FSCLPYGRLAF [SLC52A2_Y305_YF] — lower, 0.56
- PVDVAYRRGFF [PLEC_Y2967_YF] — lower, 0.586
- QTLTDYDTRFF [CSNK2A3_Y131_I133T_YF] — lower, 0.473
- CTTIHYNFTCN [TP53_Y234_M237T_YF] — lower, 0.42
- RLRKFYLGKFL [KLB_Y906_YF] — higher, 0.645
- FISVGYVDDTQ [HLA-B_Y51] — lower, 0.432

Test system: c-Abl (mouse)
Test: as above

Point of comparison: RLRKFYLGKFL [KLB_Y906_YF], phosphorylation enrichment 0.719. Against it:
- TFRPPYYHRDC [HGD_Y333_N337D] — lower, 0.639
- HCFNSYTFPRL [PAK7_Y316_S312C_YF] — higher, 0.795
- AESPEYVHMYT [FAM111A_Y511] — higher, 0.825
- VVQGIYGFHHH [UFSP2_Y285_Y290H_YF] — higher, 2.36
- QKLPLYILENN [VPS13B_Y2774_S2773L] — higher, 1
- AWVARYIFKRL [LPCAT3_Y348] — higher, 0.748
- FLAVGYHQPHI [IDS_Y225_K227Q] — lower, 0.57
- IHETTYKSIMK [ACTA1_Y281_N282K] — lower, 0.458
- ATRKAYGQALA [TKT_Y321] — lower, 0.415
- KVGPGYLGSRG [RET_Y826_G830R] — lower, 0.444
- ELELLYPDRNS [NYX_Y284_L285P] — higher, 0.799
- MEYAKYGSLRG [RET_Y809_V804M] — lower, 0.474
- PLDGESFTLQI [TP53_Y327_Y327S] — higher, 1.23
- YYSSEYHYVGG [CTSC_Y345] — higher, 12.8
- CSRHFYQLTKL [AR_Y858_R856H] — higher, 0.763
- IDDNQYAYLKA [HNF4A_Y286_E285Q] — higher, 1.02
- NTQRPYYKGGG [TYROBP_Y111] — lower, 0.427
- QFNPEYVQQAS [LRRC7_Y1058_H1054Y_YF] — higher, 0.904
- DFDNLYFWDQD [ERBB2_Y1221_A1216D_YF] — higher, 0.801
- VAMDDYLKNVV [LRRK2_Y707_M712V] — lower, 0.518
- MYDKEYYSVHN [MET_Y1234] — higher, 1.05
- MKVPVYETPAG [PGM5_Y358] — higher, 18.2
- AHPIIYEIIEA [PYKtide_E_2014] — higher, 2.94
- RKETFYTLSCR [GUCY2C_Y681] — higher, 1.29
- LQRCKYSHMEP [TEX45_Y434] — higher, 1.16
- NDQANYLLNTD [ADA_Y290_S291L] — lower, 0.681
- EGDGVYTLNNK [HP_Y125_E130K] — lower, 0.62
- FSCLPYGRLAF [SLC52A2_Y305_YF] — higher, 0.882
- PVDVAYRRGFF [PLEC_Y2967_YF] — lower, 0.574
- QTLTDYDTRFF [CSNK2A3_Y131_I133T_YF] — higher, 0.725
- CTTIHYNFTCN [TP53_Y234_M237T_YF] — lower, 0.634
- FISVGYVDDTQ [HLA-B_Y51] — higher, 0.752
